This is an account of results in publication PMC3408443.

In the test the target is MHC II molecules of Flt3L-mobilized splenic CD11c+ DCs from Balb/c×C57Bl/6 (I-A^b,d/E^d) F1 mice (mouse (endogenous in splenic DCs)). As to the kind of experiment: affinity purification with mass spectrometry.

B1: … MHC II peptide derived from endogenous apolipoprotein E (peptide)
peptide: KELEEQLGPVAEETR
Regarding B1, the amount of peptide eluted from MHC II is 15 fmol/µL and the copies per cell presented on MHC II worked out at 180 copies/cell.
